The assay in a line: β-galactosidase ONPG activity assay. In kind it is biochemical. The following applies: oNPG substrate, over 30 minutes. The procedure:
Standard β-galactosidase assays were performed at room temperature using o-nitrophenyl-β-D-galactopyranoside (ONPG, Sigma) as a substrate in […] with detection of o-nitrophenol release at 420 nm (UV-Spectra Max Spectrophotometer, Molecular Devices, USA). A typical reaction contained 50 mM sodium citrate buffer pH 5.6, 10 mM magnesium chloride and 100 mM potassium chloride with 2 mM ONPG and the desired amount of enzyme (usually […]). Partially purified AoBG (Sigma G5160, USA) was used as a positive control at a final concentration of 1 U mL−1. Vmax was calculated using the SpectraMax Plus software (Molecular Devices, USA) and when required kinetics were determined by varying the concentration of substrate and kinetic determinants calculated using Hyper™ (J. S. Easterby, Liverpool University).
Cells expressing enzyme variants grown in buffered minimal medium were induced for 72 hr with 1% methanol (refreshed every 24 hr), the culture supernatant harvested and assayed for standard ONPG activity over 30 minutes and mogroside V activity at pH 5.6, 37° C. for 72 hrs. The resultant activity data (Table 2) identified E200 and D258 as the likely catalytic pair for acid/base and nucleophilic attack of mogroside V by the A. oryzae β-glucosidase enzyme.

This passage reports oNPG results from patent US12247238B2, “Mogroside biocatalysis methods and products” (The Coca-Cola Company, priority 2019, dated 2025).

B1: E200A: A. oryzae β-galactosidase variant, E200A (protein, UniProt Q2UCU3 19-1005, looked up, variant E200A)
Beta-galactosidase A: ASIKHRLNGFTILEHPDPAKRDLLQDIVTWDDKSLFINGERIMLFSGEVHPFRLPVPSLWLDIFHKIRALGFNCVSFYIDWALLEGKPGDYRAEGIFALEPFFDAAKEAGIYLIARPGSYINAEVSGGGFPGWLQRVNGTLRSSDEPFLKATDNYIANAAAAVAKAQITNGGPVILYQPENAYSGGCCGVKYPDADYMQYVMDQARKADIVVPFISNDASPSGHNAPGSGTGAVDIYGHDSYPLGFDCANPSVWPEGKLPDNFRTLHLEQSPSTPYSLLEFQAGAFDPWGGPGFEKCYALVNHEFSRVFYRNDLSFGVSTFNLYMTFGGTNWGNLGHPGGYTSYDYGSPITETRNVTREKYSDIKLLANFVKASPSYLTATPRNLTTGVYTDTSDLAVTPLIGDSPGSFFVVRHTDYSSQESTSYKLKLPTSAGNLTIPQLEGTLSLNGRDSKIHVVDYNVSGTNIIYSTAEVFTWKKFDGNKVLVLYGGPKEHHELAIASKSNVTIIEGSDSGIVSTRKGSSVIIGWDVSSTRRIVQVGDLRVFLLDRNSAYNYWVPELPTEGTSPGFSTSKTTASSIIVKAGYLLRGAHLDGADLHLTADFNATTPIEVIGAPTGAKNLFVNGEKASHTVDKNGIWSSEVKYAAPEIKLPGLKDLDWKYLDTLPEIKSSYDDSAWVSADLPKTKNTHRPLDTPTSLYSSDYGFHTGYLIYRGHFVANGKESEFFIRTQGGSAFGSSVWLNETYLGSWTGADYAMDGNSTYKLSQLESGKNYVITVVIDNLGLDENWTVGEETMKNPRGILSYKLSGQDASAITWKLTGNLGGEDYQDKVRGPLNEGGLYAERQGFHQPQPPSESWESGSPLEGLSKPGIGFYTAQFDLDLPKGWDVPLYFNFGNNTQAARAQLYVNGYQYGKFTGNVGPQTSFPVPEGILNYRGTNYVALSLWALESDGAKLGSFELSYTTPVLTGYGNVESPEQPKYEQRKGAY
With B1, the oNPG entry was “INACTIVE”.

B2: D258Q: A. oryzae β-galactosidase variant, D258Q (protein, UniProt Q2UCU3 19-1005, looked up, variant D258Q)
Beta-galactosidase A: ASIKHRLNGFTILEHPDPAKRDLLQDIVTWDDKSLFINGERIMLFSGEVHPFRLPVPSLWLDIFHKIRALGFNCVSFYIDWALLEGKPGDYRAEGIFALEPFFDAAKEAGIYLIARPGSYINAEVSGGGFPGWLQRVNGTLRSSDEPFLKATDNYIANAAAAVAKAQITNGGPVILYQPENEYSGGCCGVKYPDADYMQYVMDQARKADIVVPFISNDASPSGHNAPGSGTGAVDIYGHQSYPLGFDCANPSVWPEGKLPDNFRTLHLEQSPSTPYSLLEFQAGAFDPWGGPGFEKCYALVNHEFSRVFYRNDLSFGVSTFNLYMTFGGTNWGNLGHPGGYTSYDYGSPITETRNVTREKYSDIKLLANFVKASPSYLTATPRNLTTGVYTDTSDLAVTPLIGDSPGSFFVVRHTDYSSQESTSYKLKLPTSAGNLTIPQLEGTLSLNGRDSKIHVVDYNVSGTNIIYSTAEVFTWKKFDGNKVLVLYGGPKEHHELAIASKSNVTIIEGSDSGIVSTRKGSSVIIGWDVSSTRRIVQVGDLRVFLLDRNSAYNYWVPELPTEGTSPGFSTSKTTASSIIVKAGYLLRGAHLDGADLHLTADFNATTPIEVIGAPTGAKNLFVNGEKASHTVDKNGIWSSEVKYAAPEIKLPGLKDLDWKYLDTLPEIKSSYDDSAWVSADLPKTKNTHRPLDTPTSLYSSDYGFHTGYLIYRGHFVANGKESEFFIRTQGGSAFGSSVWLNETYLGSWTGADYAMDGNSTYKLSQLESGKNYVITVVIDNLGLDENWTVGEETMKNPRGILSYKLSGQDASAITWKLTGNLGGEDYQDKVRGPLNEGGLYAERQGFHQPQPPSESWESGSPLEGLSKPGIGFYTAQFDLDLPKGWDVPLYFNFGNNTQAARAQLYVNGYQYGKFTGNVGPQTSFPVPEGILNYRGTNYVALSLWALESDGAKLGSFELSYTTPVLTGYGNVESPEQPKYEQRKGAY
Take B2: the oNPG entry is “INACTIVE”.

B3: D258A: A. oryzae β-galactosidase variant, D258A (protein, UniProt Q2UCU3 19-1005, looked up, variant D258A)
Beta-galactosidase A: ASIKHRLNGFTILEHPDPAKRDLLQDIVTWDDKSLFINGERIMLFSGEVHPFRLPVPSLWLDIFHKIRALGFNCVSFYIDWALLEGKPGDYRAEGIFALEPFFDAAKEAGIYLIARPGSYINAEVSGGGFPGWLQRVNGTLRSSDEPFLKATDNYIANAAAAVAKAQITNGGPVILYQPENEYSGGCCGVKYPDADYMQYVMDQARKADIVVPFISNDASPSGHNAPGSGTGAVDIYGHASYPLGFDCANPSVWPEGKLPDNFRTLHLEQSPSTPYSLLEFQAGAFDPWGGPGFEKCYALVNHEFSRVFYRNDLSFGVSTFNLYMTFGGTNWGNLGHPGGYTSYDYGSPITETRNVTREKYSDIKLLANFVKASPSYLTATPRNLTTGVYTDTSDLAVTPLIGDSPGSFFVVRHTDYSSQESTSYKLKLPTSAGNLTIPQLEGTLSLNGRDSKIHVVDYNVSGTNIIYSTAEVFTWKKFDGNKVLVLYGGPKEHHELAIASKSNVTIIEGSDSGIVSTRKGSSVIIGWDVSSTRRIVQVGDLRVFLLDRNSAYNYWVPELPTEGTSPGFSTSKTTASSIIVKAGYLLRGAHLDGADLHLTADFNATTPIEVIGAPTGAKNLFVNGEKASHTVDKNGIWSSEVKYAAPEIKLPGLKDLDWKYLDTLPEIKSSYDDSAWVSADLPKTKNTHRPLDTPTSLYSSDYGFHTGYLIYRGHFVANGKESEFFIRTQGGSAFGSSVWLNETYLGSWTGADYAMDGNSTYKLSQLESGKNYVITVVIDNLGLDENWTVGEETMKNPRGILSYKLSGQDASAITWKLTGNLGGEDYQDKVRGPLNEGGLYAERQGFHQPQPPSESWESGSPLEGLSKPGIGFYTAQFDLDLPKGWDVPLYFNFGNNTQAARAQLYVNGYQYGKFTGNVGPQTSFPVPEGILNYRGTNYVALSLWALESDGAKLGSFELSYTTPVLTGYGNVESPEQPKYEQRKGAY
Consider B3, for which the oNPG entry is listed as “INACTIVE”.

B4: E200A; E298A: A. oryzae β-galactosidase double variant E200A, E298A (protein, UniProt Q2UCU3 19-1005, looked up, variant E200A E298A)
Beta-galactosidase A: ASIKHRLNGFTILEHPDPAKRDLLQDIVTWDDKSLFINGERIMLFSGEVHPFRLPVPSLWLDIFHKIRALGFNCVSFYIDWALLEGKPGDYRAEGIFALEPFFDAAKEAGIYLIARPGSYINAEVSGGGFPGWLQRVNGTLRSSDEPFLKATDNYIANAAAAVAKAQITNGGPVILYQPENAYSGGCCGVKYPDADYMQYVMDQARKADIVVPFISNDASPSGHNAPGSGTGAVDIYGHDSYPLGFDCANPSVWPEGKLPDNFRTLHLEQSPSTPYSLLAFQAGAFDPWGGPGFEKCYALVNHEFSRVFYRNDLSFGVSTFNLYMTFGGTNWGNLGHPGGYTSYDYGSPITETRNVTREKYSDIKLLANFVKASPSYLTATPRNLTTGVYTDTSDLAVTPLIGDSPGSFFVVRHTDYSSQESTSYKLKLPTSAGNLTIPQLEGTLSLNGRDSKIHVVDYNVSGTNIIYSTAEVFTWKKFDGNKVLVLYGGPKEHHELAIASKSNVTIIEGSDSGIVSTRKGSSVIIGWDVSSTRRIVQVGDLRVFLLDRNSAYNYWVPELPTEGTSPGFSTSKTTASSIIVKAGYLLRGAHLDGADLHLTADFNATTPIEVIGAPTGAKNLFVNGEKASHTVDKNGIWSSEVKYAAPEIKLPGLKDLDWKYLDTLPEIKSSYDDSAWVSADLPKTKNTHRPLDTPTSLYSSDYGFHTGYLIYRGHFVANGKESEFFIRTQGGSAFGSSVWLNETYLGSWTGADYAMDGNSTYKLSQLESGKNYVITVVIDNLGLDENWTVGEETMKNPRGILSYKLSGQDASAITWKLTGNLGGEDYQDKVRGPLNEGGLYAERQGFHQPQPPSESWESGSPLEGLSKPGIGFYTAQFDLDLPKGWDVPLYFNFGNNTQAARAQLYVNGYQYGKFTGNVGPQTSFPVPEGILNYRGTNYVALSLWALESDGAKLGSFELSYTTPVLTGYGNVESPEQPKYEQRKGAY
B4: the oNPG result is on record as “INACTIVE”.

B5: E200Q; E298Q: A. oryzae β-galactosidase double variant E200Q, E298Q (protein, UniProt Q2UCU3 19-1005, looked up, variant E200Q E298Q)
Beta-galactosidase A: ASIKHRLNGFTILEHPDPAKRDLLQDIVTWDDKSLFINGERIMLFSGEVHPFRLPVPSLWLDIFHKIRALGFNCVSFYIDWALLEGKPGDYRAEGIFALEPFFDAAKEAGIYLIARPGSYINAEVSGGGFPGWLQRVNGTLRSSDEPFLKATDNYIANAAAAVAKAQITNGGPVILYQPENQYSGGCCGVKYPDADYMQYVMDQARKADIVVPFISNDASPSGHNAPGSGTGAVDIYGHDSYPLGFDCANPSVWPEGKLPDNFRTLHLEQSPSTPYSLLQFQAGAFDPWGGPGFEKCYALVNHEFSRVFYRNDLSFGVSTFNLYMTFGGTNWGNLGHPGGYTSYDYGSPITETRNVTREKYSDIKLLANFVKASPSYLTATPRNLTTGVYTDTSDLAVTPLIGDSPGSFFVVRHTDYSSQESTSYKLKLPTSAGNLTIPQLEGTLSLNGRDSKIHVVDYNVSGTNIIYSTAEVFTWKKFDGNKVLVLYGGPKEHHELAIASKSNVTIIEGSDSGIVSTRKGSSVIIGWDVSSTRRIVQVGDLRVFLLDRNSAYNYWVPELPTEGTSPGFSTSKTTASSIIVKAGYLLRGAHLDGADLHLTADFNATTPIEVIGAPTGAKNLFVNGEKASHTVDKNGIWSSEVKYAAPEIKLPGLKDLDWKYLDTLPEIKSSYDDSAWVSADLPKTKNTHRPLDTPTSLYSSDYGFHTGYLIYRGHFVANGKESEFFIRTQGGSAFGSSVWLNETYLGSWTGADYAMDGNSTYKLSQLESGKNYVITVVIDNLGLDENWTVGEETMKNPRGILSYKLSGQDASAITWKLTGNLGGEDYQDKVRGPLNEGGLYAERQGFHQPQPPSESWESGSPLEGLSKPGIGFYTAQFDLDLPKGWDVPLYFNFGNNTQAARAQLYVNGYQYGKFTGNVGPQTSFPVPEGILNYRGTNYVALSLWALESDGAKLGSFELSYTTPVLTGYGNVESPEQPKYEQRKGAY
For the molecule B5, the oNPG entry is “INACTIVE”.
